Key:
endogenous human NOX4 = biological target: T1, endogenous human NOX4 (Homo sapiens (endogenous), UniProt Q9NPH5); test: Western blot; whole-cell extracts (RIPA buffer) loaded without boiling on a 4-20% Tris glycine gel, transferred to nitrocellulose, incubated with primary antibody overnight; fibroblasts treated with TGF-β1, COV362 cells with NOX4 siRNA; details: one partner purified
T1 construct: NADPH oxidase 4 (NOX4), endogenous in human cell lines and human tissues; also called endogenous NOX4; NOX4 protein; source: endogenous: CCL-210 lung fibroblast and COV362 whole-cell extracts; COV362 and OVCAR3 membrane fractions; COV362 cells; formalin-fixed human tissues (BioMax TMA MC6163)

[1] = biological target: T2, MycDDK-HsNOX4 (human NADPH oxidase 4) (Homo sapiens, UniProt Q9NPH5); test: as above; details: one partner purified
T2 construct: NADPH oxidase 4 (NOX4), human, from plasmid pCMV-MycDDK-HsNOX4; also called MycDDK-NOX4; source: HEK293, stably (clones WT1, WT2) or transiently transfected; in whole-cell extract or on/in cells; not shown: Myc, N-terminal, kept; DDK, N-terminal, kept
T2 sequence (Q9NPH5 whole entry): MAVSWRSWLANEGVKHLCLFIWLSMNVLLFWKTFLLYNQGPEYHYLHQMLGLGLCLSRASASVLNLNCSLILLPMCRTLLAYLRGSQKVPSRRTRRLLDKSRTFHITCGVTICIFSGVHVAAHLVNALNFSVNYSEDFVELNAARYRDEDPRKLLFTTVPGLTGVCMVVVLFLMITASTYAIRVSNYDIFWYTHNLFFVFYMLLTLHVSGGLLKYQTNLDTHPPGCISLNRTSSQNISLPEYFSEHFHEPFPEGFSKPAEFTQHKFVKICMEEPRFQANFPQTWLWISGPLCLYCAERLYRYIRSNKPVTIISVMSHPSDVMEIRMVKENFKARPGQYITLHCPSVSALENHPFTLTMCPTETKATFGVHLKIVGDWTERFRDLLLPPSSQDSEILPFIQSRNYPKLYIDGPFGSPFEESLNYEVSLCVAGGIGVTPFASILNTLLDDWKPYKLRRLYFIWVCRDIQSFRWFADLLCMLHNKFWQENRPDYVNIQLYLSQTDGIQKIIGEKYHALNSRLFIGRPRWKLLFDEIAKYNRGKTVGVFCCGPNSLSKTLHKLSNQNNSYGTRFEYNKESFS

T1 sequence (Q9NPH5 whole entry): as above

B1: NOX4 rabbit monoclonal antibody 47-6 (antibody, V domains shown)
VH: QSVEESGGRLVTPGGSLTLTCTVSGIDLSSNSVTWVRQAPGEGLKWIGIISDSHRAYYATWAKGRFTISKTSSTTVDLKMTSLTTGDTATYFCVVGNNIWGPGTLVTVSS
VL: AQVLTQTASPVSAAVGGTVTINCQASESVYSDNRLSWFQQKPGQPPKLLIYYASTLASGVPSRVKGSGSGTQFTLTISDLECDDAATYYCAGGFSNNIYEFGGGTEVVVK
notes: Rabbit monoclonal raised against fixed NOX4-overexpressing HEK293 cells and a peptide of human NOX4 amino acids 209-282 (E-loop); also called mAb 47-6; 47-6 mAb
B1: binds (endogenous human NOX4); binds [1].
